The source of these data is USRE46585 (LABORATOIRE FRANCAIS DU FRACTIONNEMENT ET DES …, dated 2017).

Where two headings read alike, the source gives them in different places.

Test [1] has as its target T1, FcRn-p3 fusion protein (human, UniProt P55899 24-297; P61769 21-119).
T1 construct: baculovirus expressed; coated on ELISA wells; not shown: amino terminal part of bacteriophage p3 protein and CVDE protein
The experiment in a line: phage ELISA pH6 (est.). On the technique in general: In an ELISA, binding on a coated surface is turned into a signal by an enzyme label.

Test [2] addresses T1, FcRn-p3 fusion protein. Put plainly: phage ELISA pH6.
Test [3] has as its target T1, FcRn-p3 fusion protein. Put plainly: phage ELISA pH6 (est.). The source holds these as a separate data set.
Test [4] deals with T1, FcRn-p3 fusion protein. The experiment in a line: phage ELISA pH6. This is another data set of the same source.
Test [5] addresses T1, FcRn-p3 fusion protein. The experiment in a line: phage ELISA pH6 (est.). This is another data set of the same source.
For test [6], the target named is T1, FcRn-p3 fusion protein. The experiment in a line: phage ELISA pH6. The source holds these as a separate data set.
For test [7], the target named is T1, FcRn-p3 fusion protein. The experiment in a line: phage ELISA pH6. This is another data set of the same source.
For test [8], the target named is T2, recombinant soluble human FcRn (human, UniProt P55899 24-297; P61769 21-119).
T2 construct: amine-coupled to the SPR chip
T2 sequence (P55899 24-297, chain 1 of 2): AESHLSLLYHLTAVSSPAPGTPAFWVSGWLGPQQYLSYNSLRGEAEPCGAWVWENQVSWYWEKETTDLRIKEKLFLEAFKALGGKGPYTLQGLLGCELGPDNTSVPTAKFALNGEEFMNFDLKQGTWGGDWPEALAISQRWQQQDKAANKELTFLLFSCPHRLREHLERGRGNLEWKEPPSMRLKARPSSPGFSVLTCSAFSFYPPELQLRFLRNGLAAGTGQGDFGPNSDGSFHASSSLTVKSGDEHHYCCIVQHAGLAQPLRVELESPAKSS
T2 sequence (P61769 21-119, chain 2 of 2): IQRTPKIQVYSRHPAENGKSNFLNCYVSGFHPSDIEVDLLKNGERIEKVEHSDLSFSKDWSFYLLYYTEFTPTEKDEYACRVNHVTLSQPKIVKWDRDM
Put plainly: SPR pH6, immobilized FcRn, steady state.

In test [9] the target is T1, FcRn-p3 fusion protein. Put plainly: ELISA pH6, soluble Fc on coated FcRn-p3.
Test [10] addresses T1, FcRn-p3 fusion protein. Put plainly: ELISA pH6, soluble Fc on coated FcRn-p3. The source holds these as a separate data set.
Test [11] addresses T2, recombinant soluble human FcRn. Put plainly: SPR pH6, immobilized FcRn, steady state. The source holds these as a separate data set.

T1 sequence (P55899 24-297, chain 1 of 2): as the sequence (P55899 24-297, chain 1 of 2) above
T1 sequence (P61769 21-119, chain 2 of 2): as the sequence (P61769 21-119, chain 2 of 2) above

B1: C6A_69 (other)
chain: CPPCPAPELLGGPSVFLFPPKPKDTLMISRTPEVTCVVVDVSHEDPEVKFNWYVDGVEVHNAKTKPREEQYNSTYRVVSVLAVLHQDWLDGKEYKCKVSNKALPVPIEKTISKAKGQPREPQVYTLPPSRDELTKNQVSLTCLVKGFYPSDIAVEWVSNGQPETNYKTTPPVLDSDGSFFLYSKLTVDKSRWQQGNVFSCSVMHEALHYHYTQKSLSLSPGK
notes: EU numbering
For the molecule B1, the “phage-ELISA ratio/WT” value with FcRn-p3 fusion protein [1] is 28.4 fold. For the same molecule, the Ratio/Fc-H with FcRn-p3 fusion protein [2] and with FcRn-p3 fusion protein [4] was 8.9 fold in each case. Besides, the Ratio/FWT with FcRn-p3 fusion protein [3] came to 28.4 fold. For the same molecule, the Ratio/Fc-WT with FcRn-p3 fusion protein [5] was 28.4 fold.

B2: S3A_07 (other)
chain: CPPCPAPELLGGPSVFLFPPKPKDTLMISRTPEVTCVVEDVSHEDPEVKFNWYVDGVEVHNAKTKPREEQYNSTYRVVSVLTVLHQDWLNGKEYKCKVSNKALPAPIEKTISKAKGQPREPQVYTLPPSRDELTKNQVSLTCLVKGFYPSDIVVEWGSNGQPENNYKTTPPVLDSDGSFFLYSKLTVDKSRWQQGNVFSCSVMHEALHNHYTQKSLSLSPGK
notes: EU numbering
B2: the Ratio/Fc-WT with FcRn-p3 fusion protein [6] is 3.5 fold. The “phage-ELISA Ratio/Fc-WT” value with FcRn-p3 fusion protein [7] was 3.5 fold.

B3: S3A_07 (soluble recombinant Fc polypeptide) (other)
chain: CPPCPAPELLGGPSVFLFPPKPKDTLMISRTPEVTCVVEDVSHEDPEVKFNWYVDGVEVHNAKTKPREEQYNSTYRVVSVLTVLHQDWLNGKEYKCKVSNKALPAPIEKTISKAKGQPREPQVYTLPPSRDELTKNQVSLTCLVKGFYPSDIVVEWGSNGQPENNYKTTPPVLDSDGSFFLYSKLTVDKSRWQQGNVFSCSVMHEALHNHYTQKSLSLSPGK
notes: EU numbering; E. coli periplasmic expression; not shown: C-terminal 6xHis tag and V5 tag
In the case of B3, the “SPR Ratio/Fc-WT (Fc-WT Kd / variant Kd)” value in [8] amounted to 5.2 fold. In addition, in the test with FcRn-p3 fusion protein [9], the “Fc-rec-ELISA Ratio/WT” value turned out to be 25.3 fold.

B4: C6A_72 (other)
chain: CPPCPAPELLGGPSVFLFPPKPKDALMISRTPEVTCVVVDVSHEDPEVKFNWYVDGVEVHNAKTKPREEQYNSTYRVVSVLTVLHQDWLNGKEYKCKVSNKALPAPIEKTISKAKGQPREPQVYTLPPSRDELTKNQVSLTCLVKGFYPSDIAVEWESNGQPEKNYKTTPPVLDSDGSFFLYSKLTVDKSRWQQGNVFSCSVMHEALHYHYTQKSLSLSPGK
notes: EU numbering
On to B4, for which the “phage-ELISA ratio/WT” value with FcRn-p3 fusion protein [1] was determined as 25.7 fold. Moreover, the Ratio/Fc-H with FcRn-p3 fusion protein [2] and in the test with FcRn-p3 fusion protein [4] was 8 fold throughout. Further, the Ratio/FWT with FcRn-p3 fusion protein [3] came out at 25.7 fold. In the test with FcRn-p3 fusion protein [5], the Ratio/Fc-WT came to 25.7 fold.

B5: T5A_81 (soluble recombinant Fc polypeptide) (other)
chain: CPPCPAPELLGGPSVFLFPPKPKDTLMISRTPEVTCVVEDVSHEDPEVKFNWYVDGVEVHNAKTKPREEQYNSTYRVVSVLTVLHQDWLNGKEYKCKVSNKALPAPIEKTISKAKGQPREPQVYTLPPSRDELTKNQVSLTCLVKGFYPSDIVVEWESNGQPENNYKTTPPVLDSDGSFFLYSKLTVDKSKWQQGNVFSCSVMHEALHNHYTQKSLSLSPGK
notes: as for B3
One may read the EC50 as the concentration needed to bring the measured effect to its halfway point. A lower EC50 goes with greater potency. A word on the Kd: it is the free concentration of one partner at which half of the binding sites on the other are occupied at equilibrium, for simple one-to-one binding. On to B5, for which, in the test with FcRn-p3 fusion protein [10], the response was half-maximal at 145 nM (EC50) and the “ELISA ratio/Fc-WT (Fc-WT EC50 / variant EC50)” value came out at 3 fold. For the same molecule, in test [11], the dissociation constant Kd amounted to 22.7 nM and the “SPR Ratio/Fc-WT (Fc-WT Kd / variant Kd)” value was 1.3 fold.

B6: C6A_72 (soluble recombinant Fc polypeptide) (other)
chain: CPPCPAPELLGGPSVFLFPPKPKDALMISRTPEVTCVVVDVSHEDPEVKFNWYVDGVEVHNAKTKPREEQYNSTYRVVSVLTVLHQDWLNGKEYKCKVSNKALPAPIEKTISKAKGQPREPQVYTLPPSRDELTKNQVSLTCLVKGFYPSDIAVEWESNGQPEKNYKTTPPVLDSDGSFFLYSKLTVDKSRWQQGNVFSCSVMHEALHYHYTQKSLSLSPGK
notes: as for B3
Take B6: in the test with FcRn-p3 fusion protein [10], the EC50 was 7.8 nM and the “ELISA ratio/Fc-WT (Fc-WT EC50 / variant EC50)” value came to 59 fold. Also, in test [11], the dissociation constant Kd came out at 12.4 nM and the “SPR Ratio/Fc-WT (Fc-WT Kd / variant Kd)” value worked out at 2.4 fold.

B7: C6A_74 (soluble recombinant Fc polypeptide) (other)
chain: CPPCPAPELLGGPSVFLFPPKPKDTLMISRTPEITCVVVDVSHEDPEVKFNWYVDGVEVHNAKTKPREEQYNSTYRVVSVLTVLHQDWLDGKEYKCKVSNKALPAPIEKTISKAKGQPREPQVYTLPPSRDELTKNQVSLTCLVKGFYPSDIAVEWESNGQPENNYKTTPPVLDSDGSFFLYSKLTVDKSRWQQGNVFSCSVMHEALHYHYTQKSLSLSPGK
notes: as for B3
In turn, B7 came in with a concentration for a half-maximal effect (EC50) with FcRn-p3 fusion protein [10] of 7.3 nM. The Kd in test [11] came out at 5.9 nM.

B8: T5A_94 (soluble recombinant Fc polypeptide) (other)
chain: CPPCPAPELLGGPSVFLFPPKPKDTLMISRTPEVTCVVEDVSHEDPEVKFNWYVDGVEVHNAKTKPREEQYNSTYRVVSVLTVLHQDWLNGKEYKCKVSNKALPAPIEKTISKAKGQPREPQVYTLPPSRDELTKNQVSLTCLVKGFYPSDITVEWESNGQPENNYKTTPLVLDSDGSFFLYSKLTVDKSRWQQGNVFSCSVMHEALHNHYTQKSLSLSPGK
notes: as for B3
For B8, the response in the test with FcRn-p3 fusion protein [10] was half-maximal at 166 nM (EC50). Moreover, the Kd in test [11] amounted to 13.7 nM.

B9: C6A_69 (soluble recombinant Fc polypeptide) (other)
chain: CPPCPAPELLGGPSVFLFPPKPKDTLMISRTPEVTCVVVDVSHEDPEVKFNWYVDGVEVHNAKTKPREEQYNSTYRVVSVLAVLHQDWLDGKEYKCKVSNKALPVPIEKTISKAKGQPREPQVYTLPPSRDELTKNQVSLTCLVKGFYPSDIAVEWVSNGQPETNYKTTPPVLDSDGSFFLYSKLTVDKSRWQQGNVFSCSVMHEALHYHYTQKSLSLSPGK
notes: as for B3
B9: in the test with FcRn-p3 fusion protein [10], it took 3.7 nM to reach a half-maximal effect (EC50) and the “ELISA ratio/Fc-WT (Fc-WT EC50 / variant EC50)” value was determined as 124 fold. Further, in [11], the Kd is 7.2 nM and the “SPR Ratio/Fc-WT (Fc-WT Kd / variant Kd)” value came out at 4.2 fold.

B10: T5A_81 (other)
chain: CPPCPAPELLGGPSVFLFPPKPKDTLMISRTPEVTCVVEDVSHEDPEVKFNWYVDGVEVHNAKTKPREEQYNSTYRVVSVLTVLHQDWLNGKEYKCKVSNKALPAPIEKTISKAKGQPREPQVYTLPPSRDELTKNQVSLTCLVKGFYPSDIVVEWESNGQPENNYKTTPPVLDSDGSFFLYSKLTVDKSKWQQGNVFSCSVMHEALHNHYTQKSLSLSPGK
notes: EU numbering
B10: the “phage-ELISA ratio/WT” value with FcRn-p3 fusion protein [1] is 14.9 fold. For the same molecule, the Ratio/Fc-H with FcRn-p3 fusion protein [2] and with FcRn-p3 fusion protein [4] was 4.6 fold in each case. The Ratio/FWT in the test with FcRn-p3 fusion protein [3] is 14.9 fold. In the test with FcRn-p3 fusion protein [5], the Ratio/Fc-WT is 14.9 fold.

B11: T5A_58 (soluble recombinant Fc polypeptide) (other)
chain: CPPCPAPELLGGPSVLLFPPKPKDTLMISRTPEVTCVVEDVSHEDPEVKFNWYVDGVEVHNAKTKPREEQYNSTYRVVSVLPVLHQDWLNGKEYKCKVSNKALPAPIEKTISKAKGQPREPQVYTLPPSRDELTKNQVSLTCLVKGFYPSDIVVEWESNGQPENNYKTTPPVLDSDGSFFLYSKLTVDKSRWQQGNVFSCSVMHEALRNHYTQKSLSLSPGK
notes: as for B3
For B11, the Kd in test [11] came out at 15.4 nM.

B12: T5A_78 (soluble recombinant Fc polypeptide) (other)
chain: CPPCPAPELLGGPSVFLFPPKPKDTLMISRTPEVTCVVEDVSHEDPEVKFNWYVDGVEVHNAKTKPREEQYNSTYRVVSVLTVLHQDWLNGKEYKCKVSNKALPAPIEKTISKAKGQPREPQVYTLPPSRDELTKNQVSLTCLVKGFYPSDIAVEWESNGRPENNYKTTPLVLDSDGSFFLYSKLTVDKSRWQQGNVFSCSVMHEALHSHYTQRSLSLSPGK
notes: as for B3
For the molecule B12, the Kd in [11] stood at 12.4 nM.
